From PMC4103757
Numbered stars: 1 amine (or outer) side, 2 acyl side, 3 side chain; on linkers, the order of the positions; unused ones are H or OH. Suc = O=C(CCC(=O)[*:2])[*:1]

Biological target: scFv-L-Aff, heterobivalent fusion protein of anti-hapten scFv (clone J42) and anti-HER2 affibody (Z_(HER2:477))
Assay: SPR

Binder {histamine-Suc}-GSYK-NH2 [hapten peptide, histamine-succinyl-GSYK] has a percent inhibition of the binding of scFv-L-Aff to immobilised hapten of 84%.
